According to the RNAGym collection of RNA variant scans (doi:10.1073/pnas.2313332121):

B1: TPR t1 (parent)
chain: GACCAAUCUGCCCUCAGAGCUCGAGAACAUCUUCGGAUGCAGAGGAGGCAGGCUUCGGUGGCGCGAUAGCGCCAACGUCCUCAACCUCCAAUGCAUCCCACCACAUGAUGAUGCCUGAAGAGCCUUGGUUUUUUG

Variants of: B1
Assay: polymerase ribozyme fitness, log enrichment relative to wild type (log ratio); higher = more active; in vitro selection for triplet polymerase activity
In short: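 Mutant libraries were PCR-built and transcribed for each subunit of a heterodimeric triplet polymerase ribozyme and selected for one round in triplicate at −7 °C, frozen, before gel excision of extended constructs and streptavidin-bead capture. Input and output libraries were Illumina-sequenced, keeping genotypes with ≥10 input reads and ≥1 read per output. Fitness is a logarithmic ratio of genotype to wild-type enrichment, in base 2, using inverse-variance-weighted replicate averages.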

Variant	polymerase ribozyme fitness (log ratio)
G44A A75U	-1.11
C72A A100U U106C	-0.411
A46G A74U G77A G113U	-3.68
A37U G71A A84C C85U U96A	-0.538
A50C C72G U87G G120C U131A	0.442
G44C C72U A75C U92G	-2.94
G10C C40G A66U	-2.18
C3U U54G A75G U92C	-2.3
U33A C56G G71U G93U C99U G110U G127C	-6.53
U96G U125A	-0.674
A46G C72U C73G G117C	-4.79
C8G C124U	0.949
U32C A50G A118U U131G	-1.27
G35A G117U	-5.09
C20U C89U A95U C115U	-3.32
U59C U109G	-5.76
U9C A50U G52C	-2.28
A50C G69U U125A	0.0264
G57A C98G U112A	-6.12
G44A G69U C104A	-1.28
C80U G107A	-6.42

Variant	polymerase ribozyme fitness (log ratio)
G35C A46C A118U C123G	-4.04
C13U G39A A103U C123U	-4.74
C8G U30A	-5.66
C28A C124A U125C G127U	-3.12
C34A U129G	-3.7
A50U G52C G58C C73U C88U	-4.53
C12G A50U C73U	-0.885
C28G A29G G42U G44A A83U C124U	-7.08
G48U C114G G122A C123G	-3.44
G52C U59G A118G	-0.37
C40U C56U U78C C89G	-2.2
C34A C89U U112A U133A	-1.77
G61A A84C C88G	0.0148
C4U A43U G63C G93A	-3.29
C3A C123G	0.176
G60U C89G C101U U112A C115U	-4.63
C11G C20G A24G U116C	-6.56
C62U G71C G120U A121C	0.341
G57A G71U C89U	-1.34
G61C A91G U112C G122A	-3.24
A6C G93U A100U	-2.54

Variant	polymerase ribozyme fitness (log ratio)
C13A A66C C123A	-2.16
C40G C53U C94G G107U C124U U125G	-7.6
C12U C56A A91U A121C	-0.738
C28U U129G	-2.18
C53A C89U U106C	-0.0062
A41G C56A G63U C70U	-2.43
G10C G117A	-1.75
A2C G120C	-0.618
C8G U55G C88A A121U G128U	0.0321
C72U C102A G120U	-2.07
A26G G39U G69C C76U A95G G110A	-5.41
C8G C11U G52U U81G U92C A119G U133A	-5.64
U9C C56G C62U	0.103
C13A G36C C64U C80U U112G G117A	-6.43
C40A G45A C56U G110C	-6.54
C40A C94G C97U G113U	-7.66
C3U G17A	-3.24
A27U U30C C76A C99G C102A A105U C115U	-6.7
U38A C49G G60U G61A U116C U125A	-4.75
G61U C80A C101A	-4.47
C3G G44A G47A C86G G120A	-4.34

Variant	polymerase ribozyme fitness (log ratio)
G61C U125A	-1.89
U7G G42A G71A	-2.58
G42U G113U	-3.06
A5U U81G G93A U106A C123U	-3.99
C72U A91G	-1.21
G52U A105G A121C	-2.06
U54C G61U U116A U131C	-2.5
U59G G117U U131G	-4.31
G63U A83G	-1.76
G47U G48U	-2.67
A46U C114A	-2.92
G47A G71A	-2.02
C12U G44U U55C	-0.924
A27C G45U U106C	-4.75
C13U C22U C82A C94A A121U U130A	-3.54
U21G A46C C86U	-2.16
G69U C73G C80A	-7.09
G47A G113U C114A A121G	-1.76
A37U G39C G57C G61A U106C G113C	-4.04
G10C C11G C20U A43U C72U	-2.23
G36A C97A	-3.86
